± gives the half width of the 95% confidence interval.

Data set [1] can be described thus: folding stability dG unfold from trypsin proteolysis; higher = more stable. The essentials:
(§1)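 Mini-proteins designed to be under 80 residues and free of cysteine were carried in a PA-tagged cDNA display construct and digested with trypsin and with chymotrypsin. Each protease was applied at 11 threefold-diluted concentrations, alongside a no-protease condition, before sequencing. K50 came from Bayesian fitting of the sequencing counts, and unfolding free energy was obtained by comparing it with a sequence-predicted unfolded-state K50 and a shared folded-state K50, for each protease separately or for both together. Designs were retained only if their AlphaFold2 dimer inter-PAE exceeded 15.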

Data set [2] is described as follows: folding stability dG unfold from chymotrypsin proteolysis; higher = more stable. The procedure, abridged:
as §1

Data set [3] can be described thus: folding stability dG unfold (combined trypsin and chymotrypsin); higher = more stable. The essentials: as §1

With “KIWIPNASWSQIKNIIRNAIKDGKERTIWIPMDPNMKPNIIDYLKDLPGIKDVEPYPNGWVKIEIDKAELKS [r1_324_TrROS]”, the “folding stability dG unfold” value in data set [1] was 2 ± 0.059 kcal/mol; in data set [2], 3.23 ± 0.076 kcal/mol; in data set [3], 2.81 ± 0.18 kcal/mol.
Taken in the same sequence, the figures for “KKITIIIPSPDGYWVVIKIEWPNGRPINVFFRSPEELLNEIQRQLGMYPENFEITDIEVMPPDDLKEAMDNS [r1_119_TrROS]” were 2.77 ± 0.1 kcal/mol, 3.39 ± 0.12 kcal/mol and 3.22 ± 0.11 kcal/mol.
Consider “KKITVVRPAKTLEEVEQAVRDLLKELNIPEGTKVEVKVEEIPETGAFVATVTVTLPNGEKIEVTVLFPKLFS [r1_84_TrMRF]”, for which the figures for the “folding stability dG unfold” value in data set [1], in data set [2] and in data set [3] were 2.26 ± 0.092 kcal/mol, 2.95 ± 0.081 kcal/mol and 2.68 ± 0.09 kcal/mol, respectively.
With “KKKKPPKVVKVEIKFDKKTKKITVKVDGKTFTITLPDGKKIEITVPAGMSEEEIKALAKKLAKELEEKLKKS [r1_25_TrROS_Hall]”, the figures for the “folding stability dG unfold” value in data set [1], in data set [2] and in data set [3] were 3.73 ± 0.12 kcal/mol, 1.97 ± 0.2 kcal/mol and 2.18 ± 0.55 kcal/mol, respectively.
Turning to “KKKTIEIIFPENNLIIKIEVDEETGKELTEEEIKKLLEELFPGKDIEKMSIEEIAKRLASLPGVKKVEIYPS [r1_463_TrROS_Hall]”, the “folding stability dG unfold” value in data set [1] was 3.19 ± 0.09 kcal/mol; in data set [2], 1.57 ± 0.07 kcal/mol; in data set [3], 2.46 ± 0.1 kcal/mol.
Taken in the same sequence, the figures for “KKVKIEIEVIHPGPDGWVIRAKVKYPGNNKKKEKPFFFPNPKEFVKEIANELLPKNQLDDVDIEMYPLEEFS [r1_399_TrROS]” were 0.973 ± 0.058 kcal/mol, 0.686 ± 0.14 kcal/mol and 0.875 ± 0.15 kcal/mol.
Taken in the same sequence, the figures for “KMKTITITVKVPKGMKVVITLANGKKIEIEVESVEDALKKIKKLLPEGAVLRVEVVKDGKVIEEKEIVIKPS [r1_276_TrROS_Hall]” were 2.18 ± 0.071 kcal/mol, 2.96 ± 0.041 kcal/mol and 2.66 ± 0.15 kcal/mol.
Taken in the same sequence, the figures for “KPKIVEKKEITIKLNGKTIKITLVKNKETGKYYAKIEIFEYDKNGKLVKKETITLEFDSLEDLLEALKKLAS [r1_288_TrROS_Hall]” were 2.14 ± 0.091 kcal/mol, 3.67 ± 0.071 kcal/mol and 3.18 ± 0.4 kcal/mol.
As to “KPKLTIEYDEETGKFTITLPDGRKIEIELKKDGTVVRIRVKENGKEREIELTLDELKALLDNKDVTIEIIPS [r1_18_TrROS_Hall]”, the “folding stability dG unfold” value in data set [1] came to 3.95 ± 0.13 kcal/mol; in data set [2] it was 3.45 ± 0.2 kcal/mol; in data set [3], 3.81 ± 0.23 kcal/mol.
The like results for “LKITLPDGAEITEITSVSVLPNGTIKITVKVRNPATGETTTVTLTITLKPAPPPEVTIVRDAETGELKLVKS [r1_411_TrROS_Hall]” were, in that order, 2.63 ± 0.1 kcal/mol, 2.14 ± 0.047 kcal/mol and 2.49 ± 0.23 kcal/mol.
The like results for “MAIVHIDFSFPDGGPTLSFEIPVPNLGPAGEEEILERASELTGISREVIRKNTEIEPIPETGDYKVTINVSS [r1_285_JUSTAS]” were, in that order, 1.46 ± 0.033 kcal/mol, 1.14 ± 0.033 kcal/mol and 1.36 ± 0.069 kcal/mol.
Taken in the same sequence, the figures for “MALPERLRELTPPVPPELALEAALKRAEELGLEEVREVRVLSVTPDGYIEVEIELPEGGSVRIRIPLEDLFS [r1_435_TrMRF]” were 1.51 ± 0.071 kcal/mol, 0.608 ± 0.18 kcal/mol and 1.15 ± 0.12 kcal/mol.
“MEEIRDLPGIKWQPIERDGDRYYWMFTIPPEQFKNNGKPPVIVMAEFEPNGKWRITPWIRPWLRKLGIEPVS [r1_256_TrROS]”: the entries for the “folding stability dG unfold” value in data set [1], in data set [2] and in data set [3] were 1.92 ± 0.049 kcal/mol, 1.72 ± 0.083 kcal/mol and 1.92 ± 0.091 kcal/mol, respectively.
Taken in the same sequence, the figures for “MEITTTPYTDPNSETTYWLITATLPDGRRITIVITKPAGGPWTVEVYAPDGTRISSKTYSSEEEAIEEALTS [r1_478_JUSTAS]” were 3.3 ± 0.051 kcal/mol, 3.2 ± 0.036 kcal/mol and 3.25 ± 0.052 kcal/mol.
Taken in the same sequence, the figures for “MKIVEITKIEKKEDGTITITIKIEPVKKGEKLKIRIIHDGKIYEAEIDAESGTITITLPKNVKELKIYIYPS [r1_428_TrROS_Hall]” were 3.21 ± 0.25 kcal/mol, 3.46 ± 0.12 kcal/mol and 3.44 ± 0.28 kcal/mol.
The like results for “MKVIEVPIEGLPVEEIRRVIEEAIEKAKAEGNPDVKIIVTVPGPPELVEATTAVVKEIADKGDVEVSVVALS [r1_387_JUSTAS]” were, in that order, 3.83 ± 0.36 kcal/mol, 2.82 ± 0.17 kcal/mol and 3.52 ± 0.29 kcal/mol.
For “MLLEFESEEELEKAIKELIEKAKKEVEEKGKKNEELKINIPVILHDKETGKETTRPITINIKPDGKITILDS [r1_316_JUSTAS]”, the results for the “folding stability dG unfold” value in data set [1], in data set [2] and in data set [3] were 0.953 ± 0.13 kcal/mol, 1.05 ± 0.13 kcal/mol and 1.01 ± 0.23 kcal/mol, respectively.
Taken in the same sequence, the figures for “MLLVKAEFTIKNSDGTEETFTVLVEVPESEEEAEEAVEKEIEKIAEEKGLSTENITEIKVEIYPPSEPVKPS [r1_159_JUSTAS]” were 2.1 ± 0.098 kcal/mol, 2.7 ± 0.077 kcal/mol and 2.48 ± 0.081 kcal/mol.

For the origin of these results see the supplement of paper PMC12764529.
